The values below come from patent US20080118498A1 (Eli Lilly, published 2008).

Assay [1] has as its target T1, C8 acylated human ghrelin (1-28) (human, n-octanoyl group on the serine at position three (Ser3)).
T1 construct: 28-residue peptide hormone; In the first KinExA experiment a biotinylated form was on the beads and the unlabelled peptide was titrated in solution; also called Human C8 ghrelin; human C8 acylated ghrelin (1-28)
In words: KinExA solution equilibrium; constant Fab, ghrelin titrated, free Fab captured on biotin-C8-ghrelin streptavidin beads. Here is the method: The KinExA 3000 instrument, manufactured by Sapidyne, is used to measure binding kinetics. Briefly, streptavidin is covalently coupled to azlactone beads. Biotinylated C8 acylated human ghrelin (1-28) is subsequently bound to these streptavidin beads. The binding of free anti-ghrelin Fab to the beads is detected on the instrument.
To measure Kds, individual tubes containing a constant concentration of 20-100 pM of Fab with decreasing serially diluted C8 acylated human ghrelin (1-28) are incubated for 18 h at 20° C. in 0.1% BSA, PBS. […] For example, clone 4a1 is used at a constant concentration of 20 pM and individual tubes are incubated with 0-20 nM of ghrelin. Incubations for other Fabs are set in a similar manner. After incubation, free Fab in each equilibrated sample is determined on the KinExA 3000 instrument according to the manufacturer's instructions. Kd values are determined using the KinExA 3000 software.
A general note: Kinetic exclusion samples the free partner from a solution-phase mixture.

For assay [2], the target named is T1, C8 acylated human ghrelin (1-28). In words: KinExA solution equilibrium; C8 ghrelin coupled to azlactone beads, n-curve analysis, n = 2. Here is the method: (§1) Briefly, 10 μg human C8 acylated ghrelin (1-28) is covalently coupled to 50 mg azlactone beads (Sapidyne). […] For example, anti-ghrelin C2 murine Fab is used at a constant concentration of either 60, 600, or 6000 pM, and individual tubes are incubated with 0-60, 0-100, or 0-1000 nM of ghrelin, respectively. After the incubation, free Fab or Mab in each equilibrated sample is determined on the KinExA 3000 instrument according to the manufacturer's instructions. Kd values are assessed using the KinEkA 3000 n-curve analysis software.

Assay [3] addresses T2, Human C10 ghrelin (1-28) (human, n-decanoyl group on Ser3 (C10-acylated)).
T2 construct: also called decanoyl ghrelin (1-28)
Briefly: BIAcore SPR; Mab captured by goat anti-mouse kappa or anti-mouse Fc gamma, ghrelin injected, n = 6. Here is the method:
(§2) The affinity (Kd) of humanized C2 anti-ghrelin Mabs is measured using a BIAcore® 2000 instrument containing a CM5 sensor chip. The BIAcore® utilizes the optical properties of surface plasmon resonance to detect alterations in protein concentration of interacting molecules within a dextran biosensor matrix. Except where noted, all reagents and materials are purchased from BIAcore® AB (Uppsala, Sweden). All measurements are performed at about 25° C. All samples containing either rat or human ghrelin (full length, C8- or C10-acylated, or desacylated) and anti-ghrelin Fab or Mab are diluted in HBS-EP buffer (150 mM sodium chloride, 3 mM EDTA, 0.005% (w/v) surfactant P-20, and 10 mM HEPES, pH 7.4). A capture antibody, goat anti-mouse kappa (Southern Biotechnology, Inc), or goat anti-mouse Fc gamma (Jackson ImmunoResearch), is immobilized onto flow cells using amine-coupling chemistry. Flow cells (1-4) are activated for 7 minutes with a 1:1 mixture of 0.1 M N-hydroxysuccinimide and 0.1 M 3-(N,N-dimethylamino)propyl-N-ethylcarbodiimide at a flow rate of 10 μl/min. The capture antibody, for example goat anti-mouse kappa, is diluted to 30 μg/mL in 10 mM sodium acetate, pH 4.5, and manually injected over all four flow cells at a flow rate of 10 μL/min. The surface density is monitored, and additional capture antibody is injected as needed to each individual cell until all flow cells reach a surface density of 4500-5000 response units (RU). Surfaces are blocked with a seven minute injection of 1 M ethanolamine-HCl, pH 8.5(10 μL/min). To ensure complete removal of any noncovalently bound capture antibody, 15 μL of 10 mM glycine, pH 1.5, are injected twice. Running buffer for kinetic experiments is HBS-EP buffer (150 mM sodium chloride, 3 mM EDTA, 0.005% (w/v) surfactant P-20, and 10 mM HEPES, pH 7.4). For C2_{—}4A1, 5A1, and 7A1, the antibody is directly coupled to a CM5 chip using the amine-coupling chemistry described above, aiming for a surface density of between 800-1000 RU. […]
(In general: In SPR one partner is held on a chip, and binding of the other changes the refractive index at the surface.)

For assay [4], the target named is T3, Rat C8 ghrelin (28 amino acids, C8-acylated) (rat, UniProt Q9QYH7 24-51, C8-acylated (n-octanoyl; octanoylated at Ser3 as told for rat ghrelin in paragraph 40)).
T3 construct: mature; the assay used the 28-residue peptide; also called C8-acylated rat ghrelin
T3 peptide (looked up): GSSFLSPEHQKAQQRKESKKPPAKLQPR
In words: BIAcore SPR; Mab captured by goat anti-mouse kappa or anti-mouse Fc gamma, ghrelin injected, n = 7. Here is the method: as §2

Assay [5] concerns the target T1, C8 acylated human ghrelin (1-28). Briefly: BIAcore SPR; Mab captured by goat anti-mouse kappa or anti-mouse Fc gamma, ghrelin injected, n = 11. Here is the method: as §2
For assay [6], the target named is T2, Human C10 ghrelin (1-28). Briefly: BIAcore SPR; Fab captured by goat anti-mouse kappa, ghrelin injected, n = 3. Here is the method:
as §2

In assay [7] the target is T3, Rat C8 ghrelin (28 amino acids, …). Briefly: BIAcore SPR; Fab captured by goat anti-mouse kappa, ghrelin injected, n = 5. Here is the method:
as §2

In assay [8] the target is T1, C8 acylated human ghrelin (1-28). In words: BIAcore SPR; Fab captured by goat anti-mouse kappa, ghrelin injected, n = 8. Here is the method: as §2
Assay [9] shares this target. In words: KinExA solution equilibrium; C8 ghrelin coupled to azlactone beads, n-curve analysis, n = 3. Here is the method: as §1
The target is the same in assay [10]. Briefly: BIAcore SPR; Mab amine-coupled to CM5 chip, ghrelin injected, n = 2. Here is the method:
(§3) The affinity (Kd) of humanized C2 anti-ghrelin Mabs is measured using a BIAcore® 2000 instrument containing a CM5 sensor chip. The BIAcore® utilizes the optical properties of surface plasmon resonance to detect alterations in protein concentration of interacting molecules within a dextran biosensor matrix. Except where noted, all reagents and materials are purchased from BIAcore® AB (Uppsala, Sweden). All measurements are performed at about 25° C. All samples containing either rat or human ghrelin (full length, C8- or C10-acylated, or desacylated) and anti-ghrelin Fab or Mab are diluted in HBS-EP buffer (150 mM sodium chloride, 3 mM EDTA, 0.005% (w/v) surfactant P-20, and 10 mM HEPES, pH 7.4). A capture antibody, goat anti-mouse kappa (Southern Biotechnology, Inc), or goat anti-mouse Fc gamma (Jackson ImmunoResearch), is immobilized onto flow cells using amine-coupling chemistry. Flow cells (1-4) are activated for 7 minutes with a 1:1 mixture of 0.1 M N-hydroxysuccinimide and 0.1 M 3-(N,N-dimethylamino)propyl-N-ethylcarbodiimide at a flow rate of 10 μl/min. The capture antibody, for example goat anti-mouse kappa, is diluted to 30 μg/mL in 10 mM sodium acetate, pH 4.5, and manually injected over all four flow cells at a flow rate of 10 μL/min. The surface density is monitored, and additional capture antibody is injected as needed to each individual cell until all flow cells reach a surface density of 4500-5000 response units (RU). Surfaces are blocked with a seven minute injection of 1 M ethanolamine-HCl, pH 8.5(10 μL/min). To ensure complete removal of any noncovalently bound capture antibody, 15 μL of 10 mM glycine, pH 1.5, are injected twice. Running buffer for kinetic experiments is HBS-EP buffer (150 mM sodium chloride, 3 mM EDTA, 0.005% (w/v) surfactant P-20, and 10 mM HEPES, pH 7.4). For C2_{—}4A1, 5A1, and 7A1, the antibody is directly coupled to a CM5 chip using the amine-coupling chemistry described above, aiming for a surface density of between 800-1000 RU.
(§4) Collection of kinetic binding data is performed at maximum flow rate (100 μL/min) and a low surface density to minimize mass transport effects.

In assay [11] the target is T3, Rat C8 ghrelin (28 amino acids, …). The assay is described as above. Here is the method: as §3, §4

Changes are numbered by the printed parent chain.

T1 sequence (peptide, as listed by the source): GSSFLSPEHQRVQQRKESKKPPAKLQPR

B1: C2 chimeric Fab (heavy and light chain variable regions of C2 murine Fab 1111 fused to human CH1 and CL domains) (Fab, V domains shown)
VH: EIQLQQSGAELMKPGASVKLSCKATGYIFTGYWIEWVKQRPGHGLEWIGEILPGSGSTNYNEKFKGKATFTADTSSNTANMQLSSLTTEDSAIYYCARYPQFRLRRERIAYWGQGTLVTVSV
VL: DLVLTQSPASLAVSLGQRATISCRASKSVSTSGYSYMHWYQQKPGQPPKLLIYLASNLESGVPARFSGSGSGTDFTLNIHPVEEEDAATYYCQHSRELPYTFGAGTKLELKR
Broadly, the Kd is the concentration at which binding is half-saturated. The low end stands for tighter binding, the high end for weaker binding. Turning to B1, in [1], the equilibrium dissociation constant (Kd) stood at 1.1 nM.

B2: Mab C2 (full murine sequence, i.e., Fab 1111 VH/VL and murine Fc) (antibody, V domains shown)
VH: B1 VH
VL: B1 VL
notes: Full-length murine antibody with a kappa light chain (it was captured with anti-mouse kappa); also called Anti-ghrelin C2 Mab
A word on the koff: it is a measure of how fast the partners let go of each other. Read a high koff as fast dissociation. By kon is commonly meant the rate constant with which the complex forms. Read a high kon as fast association. Turning to B2, the Kd came out at 1.44 nM in assay [2], 4.1 nM with Human C10 ghrelin (1-28) [3], 2.6 nM in [4] and 0.779 nM in assay [5]. For the same molecule, the dissociation rate constant (koff) worked out at 0.0092 s⁻¹ with Human C10 ghrelin (1-28) [3], 0.0018 s⁻¹ in [4] and 0.0015 s⁻¹ in assay [5]. The values for the kon (in the assay with Human C10 ghrelin (1-28) [3]; in assay [4]; in [5]) were 1.9e+06 M⁻¹ s⁻¹, 800000 M⁻¹ s⁻¹ and 2.4e+06 M⁻¹ s⁻¹, respectively.

B3: C2 murine Fab 1111 (Fab, V domains shown)
VH: B1 VH
VL: B1 VL
notes: also called Anti-ghrelin C2 Fab (Fab1111)
In the case of B3, the Kd came to 4.55 nM with Human C10 ghrelin (1-28) [6], 1.23 nM in [7], 0.953 nM in assay [8] and 1.03 nM in assay [9]. Besides, the values for the off-rate constant (koff) (with Human C10 ghrelin (1-28) [6]; in [7]; in assay [8]) were 0.0088 s⁻¹, 0.0016 s⁻¹ and 0.0016 s⁻¹, respectively. The kon with Human C10 ghrelin (1-28) [6] amounted to 2.1e+06 M⁻¹ s⁻¹; in assay [7] it was 1.4e+06 M⁻¹ s⁻¹; in assay [8], 1.7e+06 M⁻¹ s⁻¹.

B4: Mab C2 (murine VH/VL Fab 1111 sequences with rat Fc chimera) (antibody, V domains shown)
VH: B1 VH
VL: B1 VL
notes: Chimera with rat Fc
In assay [10], B4 returned a dissociation constant (Kd) of 0.363 nM, an off-rate constant (koff) of 0.0028 s⁻¹ and a kon of 7.4e+06 M⁻¹ s⁻¹. In assay [11], this molecule showed a dissociation constant (Kd) of 0.687 nM, a dissociation rate constant (koff) of 0.0019 s⁻¹ and a kon of 3.3e+06 M⁻¹ s⁻¹.

B5: Humanized, affinity matured C2 anti-ghrelin Fab 7b2 (Fab, V domains shown)
VH: QVQLVQSGAEVKKPGASVKVSCKATGYIFTGYWIEWVRQAPGQGLEWMGDILPGSGSPNYNEKFKGRVTMTTDTSTSTAYMELRSLRSDDTAVYYCARYPIFRLRTERIAEWGQGTLVTVSS
VL: DIVMTQSPDSLAVSLGERATINCRASKSVSLLGYSYMHWYQQKPGQPPKLLIYFASNLESGVPDRFSGSGSGTDFTLTISSLQAEDVAVYYCQHSIEEPYTFGQGTKLEIK
notes: Fab; The constant domains are not described
For B5, the Kd in assay [1] is 0.0253 nM.

B6: Humanized, affinity matured C2 anti-ghrelin Fab 7a1 (Fab, V domains shown)
VH: B5 VH with L104P, E111Y
VL: B5 VL with I96V
notes: Fab; The constant domains are not described for this clone
For the molecule B6, the Kd in [1] is 0.0042 nM.

B7: Humanized, affinity matured C2 anti-ghrelin Fab 5a1 (Fab, V domains shown)
VH: B5 VH
VL: B5 VL with L32S
notes: Fab; The constant domains are not described for this clone; also called Fab C2-5a1
B7 came in with a Kd in [1] of 0.001 nM.

B8: Mab C2_7A1 (human VH/VL with rat Fc chimera) (antibody, V domains shown)
VH: B5 VH with L104P, E111Y
VL: B5 VL with I96V
notes: Humanized VH/VL with rat Fc; The Mab is tied to the Fab 7a1 variable regions by its clone name only
In [10], B8 showed a Kd of 0.012 nM, a koff of 0.00013 s⁻¹ and a kon of 1e+07 M⁻¹ s⁻¹.

B9: Mab C2_5A1 (humanized, affinity matured VH/VL (Fab C2-5a1 sequences) with rat Fc chimeric C2 anti-ghrelin antibody) (antibody, V domains shown)
VH: B5 VH
VL: B5 VL with L32S
notes: Humanized VH/VL with rat Fc; also called C2-5a1 antibody
With B9, in [10], the Kd is 0.013 nM, the koff turned out to be 0.00012 s⁻¹ and the kon came out at 8.6e+06 M⁻¹ s⁻¹. In assay [11], this molecule displayed a Kd of 0.02 nM, an off-rate (koff) of 0.00012 s⁻¹ and a kon of 6.6e+06 M⁻¹ s⁻¹.
